How the values were obtained:
[1] = biological target: T1, human ErbB3 extracellular domain (ECD, residues 21-643) (Homo sapiens, UniProt P21860); experiment: SPR; ErbB3 ECD immobilised on a CM5 chip by amine coupling; Biacore T200, 37 °C; antibodies in HBS (10 mM HEPES pH 7.4, 150 mM NaCl) with 50 µg/mL BSA; sensograms fitted globally by a 1:1 model at three concentrations near KD; geometric means of two experiments; settings: both partners purified
T1 construct: ErbB3 (HER3) receptor, human, extracellular domain, residues 21-643; secreted with the Igκ leader of the pEE vector; Glycosylated, MW 75 kDa; also called ErbB3 ECD; HER3 extracellular domain; source: CHO-T-HC cells, transiently transfected, secreted, purified (IMAC on HisTrap, SEC on Superdex 200 pg)
T1 sequence (P21860 21-643 R488S): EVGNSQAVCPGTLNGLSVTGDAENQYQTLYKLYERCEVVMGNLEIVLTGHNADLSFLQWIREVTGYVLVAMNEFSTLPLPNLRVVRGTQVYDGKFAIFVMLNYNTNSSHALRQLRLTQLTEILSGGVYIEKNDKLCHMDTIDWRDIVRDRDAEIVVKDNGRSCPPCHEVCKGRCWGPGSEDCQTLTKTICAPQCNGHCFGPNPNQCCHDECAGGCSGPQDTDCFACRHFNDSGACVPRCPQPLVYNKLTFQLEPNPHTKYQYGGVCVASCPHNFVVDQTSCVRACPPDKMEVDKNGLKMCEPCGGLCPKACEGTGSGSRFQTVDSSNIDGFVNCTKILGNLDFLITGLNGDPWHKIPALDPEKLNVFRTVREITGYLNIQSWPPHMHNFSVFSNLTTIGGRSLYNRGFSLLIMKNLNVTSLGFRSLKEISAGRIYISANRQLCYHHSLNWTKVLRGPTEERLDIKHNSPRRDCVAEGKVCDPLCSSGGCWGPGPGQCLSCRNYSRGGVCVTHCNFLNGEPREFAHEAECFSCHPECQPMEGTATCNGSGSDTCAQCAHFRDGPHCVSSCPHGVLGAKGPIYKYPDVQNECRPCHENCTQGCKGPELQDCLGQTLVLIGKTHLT

[2] = biological target: T1, human ErbB3 extracellular domain (ECD, …); experiment: SPR; ErbB3 ECD immobilised on a CM5 chip by amine coupling; Biacore T200, 37 °C; HBS with 50 µg/mL BSA; equilibrium response read 5 s before injection end, fitted by the Hill equation; geometric means of two experiments; settings: both partners purified
[3] = biological target: T2, human ErbB3 extracellular subdomain 3 (ECD^III, residues 329-532) (Homo sapiens, UniProt P21860); experiment: SPR; ErbB3 ECD^III immobilised on a CM5 chip by amine coupling; Biacore T200, 37 °C; HBS with 50 µg/mL BSA; settings: both partners purified
T2 construct: ErbB3 (HER3) receptor, human, extracellular subdomain 3, residues 329-532; secreted with the Igκ leader of the pEE vector; Glycosylated, MW ~25 kDa; also called ErbB3 ECD^III; source: CHO-T-HC cells, transiently transfected, secreted, purified (CaptureSelect C-tag resin)
T2 sequence (P21860 329-532): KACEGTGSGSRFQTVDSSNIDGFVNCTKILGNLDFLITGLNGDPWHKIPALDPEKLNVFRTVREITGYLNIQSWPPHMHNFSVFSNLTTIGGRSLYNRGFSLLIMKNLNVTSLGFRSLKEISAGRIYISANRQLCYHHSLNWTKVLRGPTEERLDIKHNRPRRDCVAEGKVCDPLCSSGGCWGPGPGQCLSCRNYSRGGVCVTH

[4] = biological target: T3, extracellular domain of ErbB2 (Homo sapiens (assumed), UniProt P04626); experiment: SPR; test of antibody specificity against the extracellular domain of ErbB2 (Figure S5); Biacore T200, CM5 chip, 37 °C; settings: both partners purified
T3 construct: ErbB2 (HER2) receptor, extracellular domain; also called ErbB2 ECD

[5] = biological target: T4, ErbB3 receptor on cancer cells (Homo sapiens, UniProt P21860); experiment: immunostaining of cells or tissue; live cells stained 30 min in PBS with 5 µg/mL directly labelled antibody and Hoechst 33342; confocal microscopy; MCF-7, SK-BR-3, BT-474, Hep G2; K562 as negative control; settings: one partner purified
T4 construct: ErbB3 (HER3) receptor, endogenous on human cancer cell lines; also called HER3; source: endogenous, on live MCF-7, SK-BR-3, BT-474 and Hep G2 cells
T4 sequence (P21860 20-1342): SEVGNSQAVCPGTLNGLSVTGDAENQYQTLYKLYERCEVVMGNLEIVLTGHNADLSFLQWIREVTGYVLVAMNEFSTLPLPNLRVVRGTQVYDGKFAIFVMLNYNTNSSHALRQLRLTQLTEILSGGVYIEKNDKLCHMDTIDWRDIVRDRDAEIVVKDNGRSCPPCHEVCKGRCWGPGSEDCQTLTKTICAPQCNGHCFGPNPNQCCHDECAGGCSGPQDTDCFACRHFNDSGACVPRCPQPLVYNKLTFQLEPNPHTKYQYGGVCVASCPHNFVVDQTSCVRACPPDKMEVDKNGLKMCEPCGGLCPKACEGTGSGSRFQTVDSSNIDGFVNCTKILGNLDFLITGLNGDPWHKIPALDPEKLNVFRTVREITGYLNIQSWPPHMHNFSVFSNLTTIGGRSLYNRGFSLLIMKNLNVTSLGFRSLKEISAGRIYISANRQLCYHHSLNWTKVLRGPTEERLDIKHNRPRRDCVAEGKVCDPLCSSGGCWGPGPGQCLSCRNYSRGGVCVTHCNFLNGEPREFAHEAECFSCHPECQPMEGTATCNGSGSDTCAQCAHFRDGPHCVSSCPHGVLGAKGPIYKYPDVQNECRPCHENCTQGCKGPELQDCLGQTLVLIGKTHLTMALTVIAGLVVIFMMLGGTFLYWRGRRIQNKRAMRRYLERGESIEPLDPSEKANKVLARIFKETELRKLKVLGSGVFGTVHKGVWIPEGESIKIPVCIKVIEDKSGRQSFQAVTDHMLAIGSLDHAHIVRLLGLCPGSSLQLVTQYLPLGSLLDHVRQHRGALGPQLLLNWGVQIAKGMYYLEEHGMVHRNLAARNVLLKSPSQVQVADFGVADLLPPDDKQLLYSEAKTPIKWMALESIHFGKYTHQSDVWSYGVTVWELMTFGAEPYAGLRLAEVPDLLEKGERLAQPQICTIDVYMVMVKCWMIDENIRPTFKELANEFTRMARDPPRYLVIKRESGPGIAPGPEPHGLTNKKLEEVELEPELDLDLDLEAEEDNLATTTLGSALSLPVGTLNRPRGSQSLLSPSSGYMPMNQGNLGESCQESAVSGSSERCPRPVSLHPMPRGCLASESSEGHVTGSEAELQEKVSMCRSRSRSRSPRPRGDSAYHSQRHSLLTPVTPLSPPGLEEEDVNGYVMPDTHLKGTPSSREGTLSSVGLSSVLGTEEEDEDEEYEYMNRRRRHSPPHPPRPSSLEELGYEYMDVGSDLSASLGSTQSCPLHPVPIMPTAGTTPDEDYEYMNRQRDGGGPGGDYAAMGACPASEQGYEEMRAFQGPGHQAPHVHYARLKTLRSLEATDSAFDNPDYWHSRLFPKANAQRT

| Binder | Kd [1] [µM] | koff [1] [s⁻¹] | kon [1] [M⁻¹ s⁻¹] | Kd [2] [µM] | binding result [3] | binding result [4] | binding result [5] |
| --- | --- | --- | --- | --- | --- | --- | --- |
| BCD090-M456 (VHH, llama VHH from a phage display library; the product left after TEV cleavage; Lacks the Cys22-Cys92 disulfide bond (cysteines reduced); CDR H3 of 23 residues; also called anti-ErbB3 single-domain antibody BCD090-M456; source: E. coli SHuffle T7 express or BL21(DE3), cytoplasmic, purified (IMAC, TEV cleavage, negative IMAC, ion exchange); not shown: His tag, N-terminal, cleaved; SUMO, N-terminal, …) VHH: QVQLVQSGGGLVQSGGSLKLSCVASGGPFSTYLMGWFRQAPGKEREFVTAISRSGLNTYYADSVKGRFTISRDNAKNTVYLQMHSLKPEDTAVYHCAARRGGTNSGSYYFDRPAVSDEYDLWGQGTLVTVSS | 3.1 ± 0.2 | 0.0022 | 720 | 8.6 ± 0.8 | no binding |  |  |
| BCD090-M2 (VHH, llama VHH from a phage display library; the product left after TEV cleavage; no PDB id is printed; also called anti-ErbB3 single-domain antibody BCD090-M2; source: E. coli SHuffle T7 express, cytoplasmic, purified (IMAC, TEV cleavage, negative IMAC, ion exchange); not shown: His tag, N-terminal, cleaved; SUMO, N-terminal, cleaved) VHH: QVQLVQSGGGLVQAGGSLRLSCAFSGRTFSMYTMGWFRQAPGKEREFVAANRGRGLSPDIADSVNGRFTISRDNAKNTLYLQMDSLKPEDTAVYYCAADLQYGSSWPQRSSAEYDYWGQGTTVTVSS | 0.0165 ± 0.002 | 0.0036 | 220000 | 0.015 ± 0.001 | no binding | no binding |  |
| BCD090-P1 (VHH, llama VHH from a phage display library; the product left after TEV cleavage; Monomer by SEC; One disulfide bond Cys22-Cys92; also called anti-ErbB3 single-domain antibody BCD090-P1; source: E. coli SHuffle T7 express or BL21(DE3), cytoplasmic, purified (IMAC, TEV cleavage, negative IMAC, ion exchange); not shown: His tag, N-terminal, cleaved; SUMO, N-terminal, cleaved) VHH: EVQLVQSGGGLVQPGGSLRLSCAASGRTSSKYAMGWFRQAPGKGTEFVATISWSDGSTYYADSVEGRFTISRDNAKNTVYLQMNSLKPEDTAVYYCAAAVDVLAGTFEYEYDYWGQGTLVTVSS | 0.0016 ± 0.0002 | 0.003 | 1.9e+06 | 0.00161 ± 6e-05 | binds | no binding |  |
| BCD090-P1 conjugated with Cy5 or AF488 (VHH, as the VHH of m1 (BCD090-P1); also called labeled BCD090-P1; source: E. coli, purified, then labelled with sulfo-Cy5 or AF488 NHS ester) VHH: EVQLVQSGGGLVQPGGSLRLSCAASGRTSSKYAMGWFRQAPGKGTEFVATISWSDGSTYYADSVEGRFTISRDNAKNTVYLQMNSLKPEDTAVYYCAAAVDVLAGTFEYEYDYWGQGTLVTVSS |  |  |  |  |  |  | binds |
| pelB-BCD090-P1-His5 (VHH, as the VHH of m1 (BCD090-P1), with the uncleaved pelB leader and a histidine tag; also called BCD090-P1 purified from the periplasm; periplasmically expressed BCD090-P1; source: E. coli, periplasmic expression (pET22b), purified; not shown: pelB leader (uncleaved), N-terminal, kept; His5, C-terminal, kept) VHH: EVQLVQSGGGLVQPGGSLRLSCAASGRTSSKYAMGWFRQAPGKGTEFVATISWSDGSTYYADSVEGRFTISRDNAKNTVYLQMNSLKPEDTAVYYCAAAVDVLAGTFEYEYDYWGQGTLVTVSS | 0.0051 ± 0.0009 | 0.0044 | 870000 | 0.0065 ± 0.0009 |  |  |  |
